Measurements as given in paper PMC9569509, “Collagen Type XI Inhibits Lung Cancer-Associated Fibroblast Functions and Restrains the Integrin Binding Site Availability on Collagen Type I Matrix” (International Journal of Molecular Sciences, 2022).

Target: bovine collagen type XI (bovine, UniProt Q28083 279-911; Q32S24 28-1736; P02459 182-1487, Triple helix of alpha1(XI), alpha2(XI) and alpha3(XI), the last being the COL2A1 product; hydroxyproline and glycosylated hydroxylysine. Purchased tissue collagen (Chondrex); limits not given, and t)
Sequence (Q28083 279-911, chain 1 of 3): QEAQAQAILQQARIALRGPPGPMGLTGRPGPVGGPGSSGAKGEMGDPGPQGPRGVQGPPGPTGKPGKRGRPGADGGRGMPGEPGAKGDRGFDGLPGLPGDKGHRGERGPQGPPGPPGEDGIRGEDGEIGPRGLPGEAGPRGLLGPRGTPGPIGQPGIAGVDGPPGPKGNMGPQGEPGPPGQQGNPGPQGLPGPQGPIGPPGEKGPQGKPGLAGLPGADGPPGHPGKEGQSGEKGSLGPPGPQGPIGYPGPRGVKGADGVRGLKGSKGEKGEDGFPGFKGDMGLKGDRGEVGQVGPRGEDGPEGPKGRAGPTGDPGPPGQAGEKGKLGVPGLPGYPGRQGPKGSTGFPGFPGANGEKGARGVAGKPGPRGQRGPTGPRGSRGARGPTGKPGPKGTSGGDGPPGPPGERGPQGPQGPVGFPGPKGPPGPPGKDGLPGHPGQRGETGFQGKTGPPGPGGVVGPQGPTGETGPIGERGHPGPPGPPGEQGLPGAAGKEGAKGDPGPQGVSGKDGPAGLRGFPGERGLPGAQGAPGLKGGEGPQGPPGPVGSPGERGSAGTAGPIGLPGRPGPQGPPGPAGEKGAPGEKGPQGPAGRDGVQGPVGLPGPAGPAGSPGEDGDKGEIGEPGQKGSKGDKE
Sequence (Q32S24 28-1736, chain 2 of 3): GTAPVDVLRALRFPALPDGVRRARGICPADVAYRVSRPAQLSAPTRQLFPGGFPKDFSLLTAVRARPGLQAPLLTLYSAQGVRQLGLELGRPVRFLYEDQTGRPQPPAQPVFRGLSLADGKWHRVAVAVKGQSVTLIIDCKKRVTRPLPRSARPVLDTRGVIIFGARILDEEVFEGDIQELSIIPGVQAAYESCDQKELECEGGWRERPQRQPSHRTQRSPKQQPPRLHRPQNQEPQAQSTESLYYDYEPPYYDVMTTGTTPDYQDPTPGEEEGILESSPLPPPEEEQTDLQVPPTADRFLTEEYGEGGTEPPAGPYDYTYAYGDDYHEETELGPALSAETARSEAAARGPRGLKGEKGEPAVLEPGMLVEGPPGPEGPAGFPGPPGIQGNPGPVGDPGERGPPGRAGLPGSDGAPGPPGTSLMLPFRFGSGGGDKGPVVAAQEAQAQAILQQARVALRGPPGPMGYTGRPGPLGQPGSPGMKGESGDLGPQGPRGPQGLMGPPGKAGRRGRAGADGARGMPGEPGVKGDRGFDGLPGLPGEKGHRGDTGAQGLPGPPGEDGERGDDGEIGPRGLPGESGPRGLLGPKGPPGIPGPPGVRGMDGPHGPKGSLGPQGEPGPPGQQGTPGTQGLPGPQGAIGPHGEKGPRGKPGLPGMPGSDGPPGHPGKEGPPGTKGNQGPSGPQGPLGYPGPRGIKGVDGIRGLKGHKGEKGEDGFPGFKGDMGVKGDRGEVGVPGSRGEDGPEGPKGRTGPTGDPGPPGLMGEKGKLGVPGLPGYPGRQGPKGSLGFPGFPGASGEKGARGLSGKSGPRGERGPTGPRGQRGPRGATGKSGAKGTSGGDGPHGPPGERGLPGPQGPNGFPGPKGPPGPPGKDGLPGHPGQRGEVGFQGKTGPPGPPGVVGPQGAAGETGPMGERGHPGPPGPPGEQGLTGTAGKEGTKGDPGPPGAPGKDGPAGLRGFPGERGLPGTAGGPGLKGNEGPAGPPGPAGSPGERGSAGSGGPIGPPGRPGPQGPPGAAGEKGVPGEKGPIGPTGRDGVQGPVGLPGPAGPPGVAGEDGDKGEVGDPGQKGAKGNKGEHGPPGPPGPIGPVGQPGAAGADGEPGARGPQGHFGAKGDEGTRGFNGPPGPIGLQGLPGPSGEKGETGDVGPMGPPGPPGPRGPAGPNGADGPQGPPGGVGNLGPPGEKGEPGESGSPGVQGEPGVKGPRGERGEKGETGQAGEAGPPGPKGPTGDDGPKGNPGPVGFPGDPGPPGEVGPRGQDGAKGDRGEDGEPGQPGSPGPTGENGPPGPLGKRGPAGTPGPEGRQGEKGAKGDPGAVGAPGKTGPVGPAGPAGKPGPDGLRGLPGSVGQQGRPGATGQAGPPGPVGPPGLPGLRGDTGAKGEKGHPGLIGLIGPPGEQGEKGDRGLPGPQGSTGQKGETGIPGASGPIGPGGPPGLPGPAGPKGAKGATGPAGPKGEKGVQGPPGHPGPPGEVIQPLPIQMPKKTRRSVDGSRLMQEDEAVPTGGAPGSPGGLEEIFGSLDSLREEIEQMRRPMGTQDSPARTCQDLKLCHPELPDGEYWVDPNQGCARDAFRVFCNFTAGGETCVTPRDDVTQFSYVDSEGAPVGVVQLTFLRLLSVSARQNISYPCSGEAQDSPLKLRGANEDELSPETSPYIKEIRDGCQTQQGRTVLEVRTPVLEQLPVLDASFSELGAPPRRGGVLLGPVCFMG
Sequence (P02459 182-1487, chain 3 of 3): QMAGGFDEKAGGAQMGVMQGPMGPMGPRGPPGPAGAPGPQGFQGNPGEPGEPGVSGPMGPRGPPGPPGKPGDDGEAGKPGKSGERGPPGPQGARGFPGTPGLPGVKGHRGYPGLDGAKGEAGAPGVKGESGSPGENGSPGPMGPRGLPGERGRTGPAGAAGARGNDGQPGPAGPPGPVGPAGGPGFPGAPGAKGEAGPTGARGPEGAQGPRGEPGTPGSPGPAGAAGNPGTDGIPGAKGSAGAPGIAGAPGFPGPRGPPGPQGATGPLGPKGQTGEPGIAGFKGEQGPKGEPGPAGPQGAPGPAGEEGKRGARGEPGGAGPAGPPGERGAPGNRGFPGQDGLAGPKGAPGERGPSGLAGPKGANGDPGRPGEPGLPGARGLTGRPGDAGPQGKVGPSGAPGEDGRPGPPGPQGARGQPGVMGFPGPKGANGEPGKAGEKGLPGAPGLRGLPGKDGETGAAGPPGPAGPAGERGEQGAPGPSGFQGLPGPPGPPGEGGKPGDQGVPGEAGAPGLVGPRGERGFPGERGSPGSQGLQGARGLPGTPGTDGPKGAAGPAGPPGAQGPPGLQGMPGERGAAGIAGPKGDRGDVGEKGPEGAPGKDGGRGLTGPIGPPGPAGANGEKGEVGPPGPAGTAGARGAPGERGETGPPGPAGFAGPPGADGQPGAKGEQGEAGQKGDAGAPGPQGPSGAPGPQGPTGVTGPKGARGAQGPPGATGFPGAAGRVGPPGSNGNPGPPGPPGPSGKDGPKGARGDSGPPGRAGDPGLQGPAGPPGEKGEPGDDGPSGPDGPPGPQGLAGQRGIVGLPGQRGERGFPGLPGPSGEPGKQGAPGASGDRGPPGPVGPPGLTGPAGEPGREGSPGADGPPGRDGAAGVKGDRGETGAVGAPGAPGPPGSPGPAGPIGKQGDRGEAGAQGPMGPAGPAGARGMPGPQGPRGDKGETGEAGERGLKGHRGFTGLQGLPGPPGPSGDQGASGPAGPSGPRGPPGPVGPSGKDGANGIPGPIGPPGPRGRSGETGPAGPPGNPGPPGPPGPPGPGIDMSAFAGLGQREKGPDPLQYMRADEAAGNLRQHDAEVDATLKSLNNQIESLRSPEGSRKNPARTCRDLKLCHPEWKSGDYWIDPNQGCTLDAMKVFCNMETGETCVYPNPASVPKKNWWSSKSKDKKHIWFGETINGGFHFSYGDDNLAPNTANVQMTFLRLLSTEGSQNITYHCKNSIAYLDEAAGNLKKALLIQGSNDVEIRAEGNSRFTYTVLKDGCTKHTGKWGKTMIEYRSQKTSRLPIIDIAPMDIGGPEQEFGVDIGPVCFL
Assay: ELISA; solid phase assay: collagens (50 µg/mL) or fibronectin (10 µg/mL) immobilised on a 96-well plate; DDR2-Fc in 0.05 mg/mL κ-casein in PBS-T, 3 h at room temperature; detected by goat anti-human IgG (Fc specific)-HRP; Kd by Scatchard plot
Settings: both partners purified

Kd: 2 to 5 nM
B1: Recombinant human DDR2-Fc chimera protein (Fc fusion, UniProt Q16832 22-399, looked up)
chain: KAQVNPAICRYPLGMSGGQIPDEDITASSQWSESTAAKYGRLDSEEGDGAWCPEIPVEPDDLKEFLQIDLHTLHFITLVGTQGRHAGGHGIEFAPMYKINYSRDGTRWISWRNRHGKQVLDGNSNPYDIFLKDLEPPIVARFVRFIPVTDHSMNVCMRVELYGCVWLDGLVSYNAPAGQQFVLPGGSIIYLNDSVYDGAVGYSMTEGLGQLTDGVSGLDDFTQTHEYHVWPGYDYVGWRNESATNGYIEIMFEFDRIRNFTTMKVHCNNMFAKGVKIFKEVQCYFRSEASEWEPNAISFPLVLDDVNPSARFVTVPLHHRMASAIKCQYHFADTWMMFSEITFQSDAAMYNNSEALPTSPMAPTTYDPMLKVDDSNTR
notes: discoidin domain receptor 2, human; No catalogue number printed; Probably the extracellular domain of DDR2 joined to a human IgG Fc; Detected by goat anti-human IgG (Fc specific)-HRP; source: bought: Sino Biological
